Assay results published in US6767716B2, “Chemluminescent systems containing unsaturated 1,2-dioxetanes” (priority 2000, dated 2004).

Experiment: Stability of diluted alkaline phosphatase in the enzyme diluent
Assay type: physicochemical
Conditions: ≅100 molecules of alkaline phosphatase per ml of diluent, stored at 4° C.
Text: As is known to those skilled in the art, the stability of the enzyme is the most important factor in the detection of biological molecules. The present invention utilizes a unique diluent or buffer based upon the composition of human blood serum. The present diluent is a tris-buffer containing proteins, metal halides such as sodium chloride, potassium chloride, magnesium chloride, zinc chloride, and the like, alcohols or polyhydric alcohols and sodium azide. The pH of the buffer is between 7.5 to 8.5.

In the case of alkaline phosphatase, the “stability of enzyme in diluent” value is reported as “stable at least for one week”.
